Measured values: paper doi:10.1101/2025.04.11.646618

Experiments:
YFP-RPS4 (Arabidopsis) = YFP-RPS4 (Arabidopsis) (UniProt Q9XGM3); assay: co-IP
RPS4-HF (Arabidopsis) = RPS4-HF (Arabidopsis) (UniProt Q9XGM3); assay: co-IP

| stoichiometry N (YFP-RPS4 (Arabidopsis)) | stoichiometry N (RPS4-HF (Arabidopsis)) | Substance |
| --- | --- | --- |
| 1 | – | RRS1-R-HF (receptor) |
| – | 1 | RRS1-R-GFP (receptor) |
